The source of these data is patent US9028824 (dated 2015).

Assay [1] addresses T1, CD137 (4-1BB) ECD-IgG1 fusion (human, UniProt Q07011). As to the kind of experiment: other, up to 700 nM.
Assay [2] concerns the target T2, CD271 (NGF receptor) ECD-IgG1 fusion (human, UniProt P08138).
T2 chain: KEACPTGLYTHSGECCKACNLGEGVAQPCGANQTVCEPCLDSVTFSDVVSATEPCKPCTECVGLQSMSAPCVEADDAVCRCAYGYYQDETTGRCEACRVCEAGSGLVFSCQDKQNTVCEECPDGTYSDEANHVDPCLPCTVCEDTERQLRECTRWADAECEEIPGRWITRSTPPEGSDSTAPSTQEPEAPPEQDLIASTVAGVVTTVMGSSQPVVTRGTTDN
As to the kind of experiment: other, up to 700 nM.

Assay [3] addresses T3, CD40 ECD-IgG1 fusion (human, UniProt P25942). As to the kind of experiment: other, up to 700 nM.
In assay [4] the target is T4, human OX40R extracellular domain fusion protein (CD134-muIg) (human, UniProt P43489).
T4 chain: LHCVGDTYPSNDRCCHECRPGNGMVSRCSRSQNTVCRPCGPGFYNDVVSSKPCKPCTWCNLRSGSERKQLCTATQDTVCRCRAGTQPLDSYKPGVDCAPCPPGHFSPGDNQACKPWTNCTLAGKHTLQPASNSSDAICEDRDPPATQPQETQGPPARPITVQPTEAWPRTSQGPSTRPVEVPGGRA
As to the kind of experiment: SPR. On the technique in general: SPR reads the build-up and loss of mass on a sensor chip optically.

A further assay deals with T5, murine OX40R ECD fusion (mouse, UniProt P47741).
T5 chain: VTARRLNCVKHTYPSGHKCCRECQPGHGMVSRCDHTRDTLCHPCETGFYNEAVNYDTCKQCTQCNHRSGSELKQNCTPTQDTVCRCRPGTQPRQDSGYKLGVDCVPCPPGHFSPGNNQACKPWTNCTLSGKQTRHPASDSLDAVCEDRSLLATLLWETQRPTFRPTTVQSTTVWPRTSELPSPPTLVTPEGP
Description: ELISA. In general terms: In an ELISA, binding on a coated surface is turned into a signal by an enzyme label.

Assay [5] addresses T4, human OX40R extracellular domain fusion …. As to the kind of experiment: ELISA.
Assay [6] concerns the target T1, CD137 (4-1BB) ECD-IgG1 fusion. As to the kind of experiment: other, up to 700 nM. This is another data set of the same source.
The target in assay [7] is T3, CD40 ECD-IgG1 fusion. As to the kind of experiment: other, up to 700 nM. This is another data set of the same source.
Assay [8] addresses T6, human OX40R on cells (human, UniProt P43489).
T6 chain: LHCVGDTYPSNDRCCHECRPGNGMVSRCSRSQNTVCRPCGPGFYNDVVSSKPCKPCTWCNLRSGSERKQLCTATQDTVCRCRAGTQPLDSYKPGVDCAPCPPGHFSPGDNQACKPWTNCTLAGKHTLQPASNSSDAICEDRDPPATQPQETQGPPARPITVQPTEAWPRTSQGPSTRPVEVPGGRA
Description: FACS, human T cells. On the technique in general: Flow cytometry measures light scatter and fluorescence of single cells or particles in a stream.

For assay [9], the target named is T2, CD271 (NGF receptor) ECD-IgG1 fusion. Description: other, up to 700 nM.
For assay [10], the target named is T6, human OX40R on cells. Description: FACS, OX40R+ 300-19 cells.
For assay [11], the target named is T6, human OX40R on cells. Description: FACS, CD3/CD28 stimulated T cells.

Where two headings read alike, the source gives them in different places.

T1 sequence (Q07011 24-186): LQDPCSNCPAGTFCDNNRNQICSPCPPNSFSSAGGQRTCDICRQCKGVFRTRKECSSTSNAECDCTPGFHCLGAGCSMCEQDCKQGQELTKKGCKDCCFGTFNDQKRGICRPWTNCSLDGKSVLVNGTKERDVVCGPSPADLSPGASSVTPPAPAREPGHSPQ
T3 sequence (P25942 21-193): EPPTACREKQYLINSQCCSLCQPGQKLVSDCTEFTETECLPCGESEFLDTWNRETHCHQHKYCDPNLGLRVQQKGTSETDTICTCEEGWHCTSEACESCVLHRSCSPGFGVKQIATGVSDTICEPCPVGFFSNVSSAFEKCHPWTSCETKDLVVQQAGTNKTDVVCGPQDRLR

B1: 18D8 (antibody, V domains shown)
VH: EVQLVESGGGLVQPGRSLRLSCAASGFTFDDYAMHWVRQAPGKGLEWVSGISWNSGSIGYADSVKGRFTISRDNAKNSLYLQMNSLRAEDTALYYCAKDQSTADYYFYYGMDVWGQGTTVTVSS
VL: EIVVTQSPATLSLSPGERATLSCRASQSVSSYLAWYQQKPGQAPRLLIYDASNRATGIPARFSGSGSGTDFTLTISSLEPEDFAVYYCQQRSNWPTFGQGTKVEIK
For the molecule B1, the binding result (in [1]; in assay [2]; with CD40 ECD-IgG1 fusion [3]) was “no binding” in each case.

B2: 11D4 (antibody, V domains shown)
VH: EVQLVESGGGLVQPGGSLRLSCAASGFTFSSYSMNWVRQAPGKGLEWVSYISSSSSTIDYADSVKGRFTISRDNAKNSLYLQMNSLRDEDTAVYYCARESGWYLFDYWGQGTLVTVSS
VL: DIQMTQSPSSLSASVGDRVTITCRASQGISSWLAWYQQKPEKAPKSLIYAASSLQSGVPSRFSGSGSGTDFTLTISSLQPEDFATYYCQQYNSYPPTFGGGTKVEIK
In the case of B2, in [4], the Kd (in general, the free concentration of one partner at which half of the binding sites on the other are occupied at equilibrium, for simple one-to-one binding) turned out to be 0.48 nM. Besides, the binding result (with murine OX40R ECD fusion; in assay [6]; with CD40 ECD-IgG1 fusion [7]; in assay [9]) was “no binding” in each case. Further, the concentration giving a half-maximal response (EC50) (usually the concentration needed to bring the measured effect to its halfway point) amounted to 3.5 nM in assay [5], 0.566 µg/mL with human OX40R on cells [8], 1.7 nM with human OX40R on cells [10] and 4 nM with human OX40R on cells [11].
